Consider 2 molecules from PMC3597821.

One data set deals with T1, DmAgo2 (Drosophila melanogaster, UniProt Q9VUQ5 403-1214).
T1 sequence: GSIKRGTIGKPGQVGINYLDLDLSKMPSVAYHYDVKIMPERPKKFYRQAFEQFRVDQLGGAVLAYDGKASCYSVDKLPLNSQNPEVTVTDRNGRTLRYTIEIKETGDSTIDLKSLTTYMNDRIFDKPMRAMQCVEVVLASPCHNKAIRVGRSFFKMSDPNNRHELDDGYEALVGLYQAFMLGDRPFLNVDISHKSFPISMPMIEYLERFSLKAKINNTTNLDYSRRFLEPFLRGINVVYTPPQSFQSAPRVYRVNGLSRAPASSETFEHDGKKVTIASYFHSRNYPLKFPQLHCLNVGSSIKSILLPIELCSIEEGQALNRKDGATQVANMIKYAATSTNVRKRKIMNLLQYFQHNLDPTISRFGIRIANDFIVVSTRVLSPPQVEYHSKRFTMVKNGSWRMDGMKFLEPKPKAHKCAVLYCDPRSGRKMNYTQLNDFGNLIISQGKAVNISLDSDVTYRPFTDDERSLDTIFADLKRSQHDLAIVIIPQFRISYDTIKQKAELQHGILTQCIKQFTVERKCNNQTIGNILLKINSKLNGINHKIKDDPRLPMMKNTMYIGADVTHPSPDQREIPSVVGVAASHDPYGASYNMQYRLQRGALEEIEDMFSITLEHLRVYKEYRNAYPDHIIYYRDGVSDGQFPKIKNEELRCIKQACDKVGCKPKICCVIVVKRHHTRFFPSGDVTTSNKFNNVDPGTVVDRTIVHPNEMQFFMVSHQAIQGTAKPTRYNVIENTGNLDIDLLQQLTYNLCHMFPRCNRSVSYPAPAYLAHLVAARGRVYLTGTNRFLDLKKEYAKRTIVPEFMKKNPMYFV
Briefly: competitive double filter binding.

The target of a further data set is DmAgo1 WT (Drosophila melanogaster, UniProt A1Z9J5 1-950). Briefly: filter binding.

B1: bantam miRNA 23 nt (ssRNA)
RNA: UGAGAUCAUUUUGAAAGCUGAUU
modifications: 5' phosphate on labeled RNA (PNK)
As to B1, the Kd in the data set with DmAgo2 was 10.7 ± 1 nM.

B2: bantam guide / 43-nt target (1-12 match) (dsRNA)
RNA 1: UGAGAUCAUUUUGAAAGCUGAUU
RNA 2: AGUUCUUAAGUUAGUCGAAACAAAAUGAUCUCACAUAGGCUUA
modifications: target printed as DNA letters, assayed as RNA
On to B2, for which the binding result in the data set with DmAgo1 WT was “binds”.

A word on the Kd: it is the equilibrium constant for the complex coming apart. A high value points to weaker binding.
